Results on 10 molecules are retold here after patent US20230287082A1 (published 2023).

In experiment [1] the target is T1, yeast surface displayed ΔB7-H6 (wild-type) (human, UniProt Q68D85 25-145).
T1 construct: also called wild-type ΔB7-H6 on yeast; not shown: Aga2p fusion partner of the pYD-derived vector
T1 sequence: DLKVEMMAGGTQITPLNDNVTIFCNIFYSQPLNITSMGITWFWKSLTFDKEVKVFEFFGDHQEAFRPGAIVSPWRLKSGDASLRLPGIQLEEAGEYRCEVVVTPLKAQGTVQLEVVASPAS
The experiment is described as follows: yeast surface display, flow cytometry. Background: A flow cytometer gives signals particle by particle.

Experiment [2] has as its target human NKp30 (human) (UniProt O14931). In words: BLI, ratio to ΔB7-H6_wt. (BLI is a label-free optical method that tracks binding on a fibre tip over time.)
Experiment [3] has the same target. In words: BLI, immunoligand on anti-hFc tip.
For experiment [4], the target named is NKp30 on human NK cells (human) (UniProt O14931). The experiment is described as follows: cell-based or functional assay.
Sequence of NKp30 on human NK cells (human) (O14931 19-201): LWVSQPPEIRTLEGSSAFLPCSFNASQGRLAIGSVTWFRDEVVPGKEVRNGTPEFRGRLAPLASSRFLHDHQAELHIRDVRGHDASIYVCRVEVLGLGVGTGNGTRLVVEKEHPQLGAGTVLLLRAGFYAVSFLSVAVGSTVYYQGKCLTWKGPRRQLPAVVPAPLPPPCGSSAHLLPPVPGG

B1: human NKp30 (receptor, UniProt O14931 19-135, looked up)
chain: LWVSQPPEIRTLEGSSAFLPCSFNASQGRLAIGSVTWFRDEVVPGKEVRNGTPEFRGRLAPLASSRFLHDHQAELHIRDVRGHDASIYVCRVEVLGLGVGTGNGTRLVVEKEHPQLG
notes: Soluble analyte in BLI; also called recombinant NKp30; his-tagged NKp30 (Abcam)
Turning to B1, the binding result in experiment [1] is given as “binds”.

B2: ΔB7-H6_S3#22-SEED-PGLALA (bispecific antibody, part only; not given: SEED Fc chains and hu225 Fab, part only)
chain, part: DLKVEMMAGGTQITPLNDNVTIFCNIFYSQPLNITEMGITWFWKSLTFDKEVKVFEFWGDHQEAFRPGAIVSPWRLKSGDASLRLPGIQLEEAGEYRCEVVVTPYKAQGTVQLEVVASPAS
The Kd is the concentration at which binding is half-saturated. High values mean a looser complex, low ones a tighter complex. The koff is a measure of how fast the partners let go of each other. The kon is the rate constant with which the complex forms. A higher kon goes with faster complex formation. Regarding B2, in the experiment with human NKp30 (human) [2], the KD improvement compared to ΔB7-H6 wt is 4.3 fold, the x-fold KD improvement is 4.3 fold and the x-fold Koff improvement was 3.8 fold. In the experiment with human NKp30 (human) [3], this molecule returned a Kd of 95.2 nM, an off-rate (koff) of 0.0441 s⁻¹ and a kon of 463000 M⁻¹ s⁻¹. In experiment [4], this molecule displayed an EC50 (pM), A431 lysis with PBMC of 106 pM and an EC50 improvement compared to ΔB7-H6 wt of 8 fold.

B3: ΔB7-H6_S3#26-SEED-PGLALA (bispecific antibody, part only; not given: SEED Fc chains and hu225 Fab, part only)
chain, part: DLKVEMMAGGTQITPLNDNVTIFCNIFYSQPLNITTMGITWFWKSLTFDKEVKVFEFWDDHQEAFRPGAIVSPWRLKSGDASLRLPGIQLEEAGEYRCEVVVTPYKAQGTVQLEVVASPAS
Regarding B3, in the experiment with human NKp30 (human) [2], the KD improvement compared to ΔB7-H6 wt stood at 3.6 fold, the x-fold KD improvement was determined as 3.6 fold and the x-fold Koff improvement was found to be 3.6 fold. In the experiment with human NKp30 (human) [3], this molecule gave a Kd of 113 nM, a koff of 0.0464 s⁻¹ and a kon of 409000 M⁻¹ s⁻¹. In experiment [4], this molecule showed an EC50 (pM), A431 lysis with PBMC of 22.7 pM and an EC50 improvement compared to ΔB7-H6 wt of 38 fold.

B4: ΔB7-H6_S3#23-SEED-PGLALA (bispecific antibody, part only; not given: SEED Fc chains and hu225 Fab, part only)
chain, part: DLKVEMMAGGTQITPLNDNVTIFCNIFYSQPLNITEMGITWFWKSLTFDKEVKVFEFYGDHQEAFRPGAIVSPWRLKSGDASLRLPGIQLEEAGEYRCEVVVTPYKAQGTVQLEVVASPAS
Regarding B4, in the experiment with human NKp30 (human) [2], the KD improvement compared to ΔB7-H6 wt was determined as 3.7 fold, the x-fold KD improvement was found to be 3.7 fold and the x-fold Koff improvement amounted to 3.2 fold. Also, in the experiment with human NKp30 (human) [3], the Kd came out at 110 nM, the koff turned out to be 0.0525 s⁻¹ and the kon came out at 479000 M⁻¹ s⁻¹. In addition, in experiment [4], the EC50 (pM), A431 lysis with PBMC came to 78 pM and the EC50 improvement compared to ΔB7-H6 wt was 11 fold.

B5: ΔB7-H6_S3#28-SEED-PGLALA (bispecific antibody, part only; not given: SEED Fc chains and hu225 EGFR Fab, part only)
chain, part: DLKVEMMAGGTQITPLNDNVTIFCNIFYSQPLNITHMGITWFWKSLTFDKEVKVFEFWGDHQEAFRPGAIVSPWRLKSGDASLRLPGIQLEEAGEYRCEVVVTPLKAQGTVQLEVVASPAS
B5: in the experiment with human NKp30 (human) [2], the KD improvement compared to ΔB7-H6 wt was found to be 0.9 fold, the x-fold KD improvement was determined as 0.9 fold and the x-fold Koff improvement was determined as 1.2 fold. In the experiment with human NKp30 (human) [3], this molecule had a Kd of 443 nM, a koff of 0.136 s⁻¹ and a kon of 306000 M⁻¹ s⁻¹. In addition, in experiment [4], the EC50 (pM), A431 lysis with PBMC was determined as 114 pM and the EC50 improvement compared to ΔB7-H6 wt stood at 8 fold.

B6: ΔB7-H6_S2#7-SEED-PGLALA (bispecific antibody, part only; not given: SEED Fc chains and hu225 Fab, part only)
chain, part: DLKVEMMAGGTQITPLNDNVTIFCNIFYSQPLNITSMGITWFWKSLTFDKEVKVFEFYGDHQEAFRPGAIVSPWRLKSGDASLRLPGIQLEEAGEYRCEVIVTPYKAQGTVQLEVVTSPAS
Turning to B6, in the experiment with human NKp30 (human) [2], the KD improvement compared to ΔB7-H6 wt turned out to be 2.1 fold, the x-fold KD improvement was determined as 2.1 fold and the x-fold Koff improvement was determined as 1.7 fold. In the experiment with human NKp30 (human) [3], this molecule came in with a Kd of 191 nM, a koff of 0.0964 s⁻¹ and a kon of 504000 M⁻¹ s⁻¹. For the same molecule, in experiment [4], the EC50 (pM), A431 lysis with PBMC was 170 pM and the EC50 improvement compared to ΔB7-H6 wt is 5 fold.

B7: ΔB7-H6_S3#30-SEED-PGLALA (bispecific antibody, part only; not given: SEED Fc chains and hu225 Fab, part only)
chain, part: DLKVEMMAGGTQITPLNDNVTIFCNIFYSQPLNITEMGITWFWKSLTFDKEVKVFEFWGDHQEAFRPGAIVSPWRLKSGDASLRLPGIQLEEAGEYRCEVIVTPLKAQGTVQLEVVASPAS
For B7, in the experiment with human NKp30 (human) [2], the KD improvement compared to ΔB7-H6 wt was 3.3 fold, the x-fold KD improvement amounted to 3.3 fold and the x-fold Koff improvement was 2.2 fold. In the experiment with human NKp30 (human) [3], this molecule displayed a Kd of 125 nM, a koff of 0.0776 s⁻¹ and a kon of 622000 M⁻¹ s⁻¹. Moreover, in experiment [4], the EC50 (pM), A431 lysis with PBMC came to 176 pM and the EC50 improvement compared to ΔB7-H6 wt was found to be 5 fold.

B8: ΔB7-H6_S2#2-SEED-PGLALA (bispecific antibody, part only; not given: SEED Fc chains and hu225 Fab, part only)
chain, part: DLKVEMMAGGTQITPLNDNVTIFCNIFYSQPLNITSMGITWFWKSLTFDKEVKVFEFWDDHQEAFRPGAIVSPWRLKSGDASLRLPGIQLEEAGEYRCEVVVTPYKAQGTVQLEVVASPAS
With B8, in the experiment with human NKp30 (human) [2], the KD improvement compared to ΔB7-H6 wt turned out to be 1.9 fold, the x-fold KD improvement stood at 1.9 fold and the x-fold Koff improvement was found to be 2.3 fold. Also, in the experiment with human NKp30 (human) [3], the Kd is 217 nM, the koff stood at 0.0737 s⁻¹ and the kon came to 340000 M⁻¹ s⁻¹. Further, in experiment [4], the EC50 (pM), A431 lysis with PBMC turned out to be 169 pM and the EC50 improvement compared to ΔB7-H6 wt is 5 fold.

B9: ΔB7-H6_S2#1-SEED-PGLALA (bispecific antibody, part only; not given: SEED Fc chains and hu225 EGFR Fab, part only)
chain, part: DLKVEMMAGGTQITPLNDNVTIFCNIFYSQPLNITSMGITWFWKSLTFDKEVKVFEFYGDHQEAFRPGAIVSPWRLKSGDASLRLPGIQLEEAGEYRCEVVVTPYKAQGTVQLEVVASPAS
On to B9, for which, in the experiment with human NKp30 (human) [2], the KD improvement compared to ΔB7-H6 wt was 2 fold, the x-fold KD improvement was 2 fold and the x-fold Koff improvement came out at 2.2 fold. In the experiment with human NKp30 (human) [3], this molecule had a Kd of 205 nM, a koff of 0.078 s⁻¹ and a kon of 380000 M⁻¹ s⁻¹. In experiment [4], the EC50 (pM), A431 lysis with PBMC was 140 pM and the EC50 improvement compared to ΔB7-H6 wt amounted to 6 fold.

B10: ΔB7-H6_S2#3-SEED-PGLALA (bispecific antibody, part only; not given: SEED Fc chains and hu225 Fab, part only)
chain, part: DLKVEMMAGGTQITPLNDNVTIFCNIFYSQPLNITTMGITWFWKSLTFDKEVKVFEFWGDHQEAFRPGAIVSPWRLKSGDASLRLPGIQLEEAGEYRCEVVVTPLKAQGTVQLEVVASPAS
For B10, in the experiment with human NKp30 (human) [2], the KD improvement compared to ΔB7-H6 wt was 2.1 fold, the x-fold KD improvement amounted to 2.1 fold and the x-fold Koff improvement worked out at 1.6 fold. In the experiment with human NKp30 (human) [3], this molecule showed a Kd of 194 nM, a koff of 0.106 s⁻¹ and a kon of 546000 M⁻¹ s⁻¹. In experiment [4], this molecule showed an EC50 (pM), A431 lysis with PBMC of 175 pM and an EC50 improvement compared to ΔB7-H6 wt of 5 fold.
